# Assay results published in publication PMC4011729, “Inhibiting Heat Shock Factor 1 in Human Cancer Cells with a Potent RNA Aptamer”.
# Key:
# HSF2 = HSF2 (Homo sapiens, UniProt Q03933 1-536); experiment: EMSA; apparent affinity from % shifted complex; 1 nM RNA; EMSA: 1X binding buffer (composition not given), 1 µg yeast RNA, 4 µg BSA, 5 mM DTT, 10% glycerol, 6 U SUPERase-In in 10 µl; room temperature 30 min then 4 C 10 min; 6-9% native gel, 1/4 TBE, 1 mM MgCl2, 4 C; pH not stated; details: protein: recombinant; tags: His; label: internal 32P-UTP; two aptamer units, 5' and 3' ends protected
# HSF1 = HSF1 (Homo sapiens, UniProt Q00613 1-529); experiment: EMSA; apparent Kd, n = 5; 1 nM RNA; EMSA: 1X binding buffer (composition not given), 1 µg yeast RNA, 4 µg BSA, 5 mM DTT, 10% glycerol, 6 U SUPERase-In in 10 µl; room temperature 30 min then 4 C 10 min; 6-9% native gel, 1/4 TBE, 1 mM MgCl2, 4 C; pH not stated; details: protein: recombinant; tags: His; label: internal 32P-UTP; two aptamer units, 5' and 3' ends protected
# Chain of HSF1 (Q00613 whole entry): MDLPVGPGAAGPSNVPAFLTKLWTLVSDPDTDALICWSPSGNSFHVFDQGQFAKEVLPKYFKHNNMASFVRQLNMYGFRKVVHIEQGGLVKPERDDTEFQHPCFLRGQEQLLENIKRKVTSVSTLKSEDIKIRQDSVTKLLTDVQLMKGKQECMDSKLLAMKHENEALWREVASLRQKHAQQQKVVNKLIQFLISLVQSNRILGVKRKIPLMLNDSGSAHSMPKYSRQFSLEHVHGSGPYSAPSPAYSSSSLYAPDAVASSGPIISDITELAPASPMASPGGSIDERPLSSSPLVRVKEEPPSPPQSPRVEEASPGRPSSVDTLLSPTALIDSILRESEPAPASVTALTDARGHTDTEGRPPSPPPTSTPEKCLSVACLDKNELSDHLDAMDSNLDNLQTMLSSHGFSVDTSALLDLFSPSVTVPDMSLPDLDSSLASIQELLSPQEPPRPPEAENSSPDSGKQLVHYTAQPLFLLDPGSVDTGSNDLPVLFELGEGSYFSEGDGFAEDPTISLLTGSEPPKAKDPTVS
# Chain of HSF2 (Q03933 whole entry): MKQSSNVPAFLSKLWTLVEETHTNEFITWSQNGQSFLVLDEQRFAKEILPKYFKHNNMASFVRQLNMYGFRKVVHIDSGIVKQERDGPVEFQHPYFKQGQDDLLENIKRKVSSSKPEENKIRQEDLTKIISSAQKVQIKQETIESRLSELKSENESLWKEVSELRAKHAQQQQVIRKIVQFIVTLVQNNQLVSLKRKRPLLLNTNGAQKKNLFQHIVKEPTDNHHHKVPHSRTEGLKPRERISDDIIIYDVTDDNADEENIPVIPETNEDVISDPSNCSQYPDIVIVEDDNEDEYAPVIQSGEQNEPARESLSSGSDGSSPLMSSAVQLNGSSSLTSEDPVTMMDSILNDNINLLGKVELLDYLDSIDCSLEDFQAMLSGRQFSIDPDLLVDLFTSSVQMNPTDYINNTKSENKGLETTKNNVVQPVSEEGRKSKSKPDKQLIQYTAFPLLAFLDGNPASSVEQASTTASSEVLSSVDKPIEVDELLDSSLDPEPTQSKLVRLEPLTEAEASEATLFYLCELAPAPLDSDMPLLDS
binder,measurement,setting,value
iaRNAHSF1 (structured_RNA) RNA: GUCGAGUGACGUUGGCAUCGCGAUACAAAAUUAAGUUGAACGCGAGUUCUUCGGAAUUCAACUGCCUUCGUCAUACUCCUUGAAUUCAACUGCCUUCGGGCAUCGCGAUACAAAAUUAAGUUGAACGCGAGUUCUUGGAGGCUCGACGUCUAGCGAUGUGGUUUCGCUACUGAUGAGUCCGUGAGGACGAAAC,Kd,HSF2,~141 nM
same,Kd,HSF1,~25 nM
